Paper PMC4512762

Assays:
[1] = biological target: Diglycosylated IgG1-Fc (high mannose glycans at both CH2 domains of the dimer) (human); experiment: BLI
[2] = biological target: Monoglycosylated IgG1-Fc (high mannose glycan at a single CH2 domain of the dimer) (human); experiment: BLI

Fc γ receptor IIIA, soluble domain of the high affinity V158 polymorph
Kd [1]: 32 nM
Kd [2]: 100 nM
